Read-outs that look alike come from different tables or passages of the source.
T1: Human CD1d on cells (human, UniProt P15813 20-335)
T1 sequence (looked up): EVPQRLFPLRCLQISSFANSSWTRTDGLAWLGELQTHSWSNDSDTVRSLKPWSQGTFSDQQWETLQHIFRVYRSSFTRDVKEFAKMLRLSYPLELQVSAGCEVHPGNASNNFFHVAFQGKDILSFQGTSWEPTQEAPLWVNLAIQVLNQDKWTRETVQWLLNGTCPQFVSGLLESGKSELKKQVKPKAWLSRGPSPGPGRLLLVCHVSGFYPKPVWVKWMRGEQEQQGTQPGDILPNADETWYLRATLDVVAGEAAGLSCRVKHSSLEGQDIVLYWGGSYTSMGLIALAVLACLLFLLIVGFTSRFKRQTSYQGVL


Key:
Human CD1d/β2M = molecular target: T2, Human CD1d/β2M (human, UniProt P15813 20-301; P61769 21-119); assay: SPR
T2 construct: also called hCD1d; recombinant human CD1d

Human CD1d on cells [1] = molecular target: T1, Human CD1d on cells; assay: cell-based or functional assay
Human CD1d on cells [2] = molecular target: T1, Human CD1d on cells; assay: cell-based or functional assay; remark: listed apart in the source
Human CD1d on cells [3] = molecular target: T1, Human CD1d on cells; assay: cell-based or functional assay; remark: listed apart in the source

| Binder | Kd (Human CD1d/β2M) | NKT IL-4 EC50 (moDC) (Human CD1d on cells [1]) | NKT IL-13 EC50 (moDC) (Human CD1d on cells [1]) | further results |
| --- | --- | --- | --- | --- |
| 401.11.152 (antibody, IgG4, V domains shown, IgG4 (S228P)) VH: EVQLVESGGGLVQPGRSLRLSCAASGFTFDDYAMHWVRQAPGKGLEWVATIIWNSAIIGYADSVKGRFIVSRDNAKNSLYLQMNSLRAEDTALYYCAKDMCSSSGCPDGYFDSWGQGTLVTVSS VL: DIQMTQSPSSVSASVGDRVTITCRASQHISSWLAWYQQKPGKAPKLLIYAASSLQSGVSSRFSGSGSGTDFTLTISSLQPEDFATYYCQQANRFPLTFGGGTKLEIKR | 2.83 nM | 10.2 ng/mL | 78.5 ng/mL | – |
| 401.11.160 (antibody, IgG4, V domains shown, IgG4 (S228P)) VH: EVQLVESGGGLVQPGRSLRLSCAASGFTFDDYAMHWVRQAPGKGLEWVATIIWNSAIIGYADSVKGRFIVSRDNAKNSLYLQMNSLRAEDMALYYCAKDMCSSGGCPDGYFDSWGQGTLVTVSS VL: DIQMTQSPSSVSASVGDRVTITCRASQHISSWLAWYQQKPGKAPNLLIYAASSLQSGVPSRFSGSGSGTDFTLTISSLQPEDFATYYCQQANRFPLTFGGGTKLEIKR | 0.109 nM | 1.56 ng/mL | 6.52 ng/mL | – |
| 401.11.161 (antibody, IgG4, V domains shown, IgG4 (S228P)) VH: EVQLVESGGGLVQPGRSLRLSCAASGFTFDDYAMHWVRQAPGKGLEWVATIIWNSAIIGYADSVKGRFIVSRDNAKNSLYLQMNSLRAEDMALYYCAKDMCSSGGCPDGYFDSWGQGTLVTVSS VL: DIQMTQSPSSVSASVGDRVTITCRASQHISSWLAWYQQKPGKAPKLLIYAASSLQSGVPSRFSGSGSGTDFTLTISSLQPEDFATYYCQQANRFPLTFGGGTKLEIKR | 0.255 nM | 5.24 ng/mL | 8.38 ng/mL | – |
| 401.11.165 (antibody, IgG4, V domains shown, IgG4 (S228P)) VH: EVQLVESGGGLVQPGRSLRLSCAASGFTFDDYAMHWVRQAPGKGLEWVATIIWNSAIIGYADSVKGRFIVSRDNAKNSLYLQMNSLRAEDTALYYCAKDMCSSGGCPDGYFDSWGQGTLVTVSS VL: DIQMTQSPSSVSASVGDRVTITCRASQHISSWLAWYQQKPGKAPKLLIYAASSLQSGVPSRFSGSGSGTDFTLTISSLQPEDFATYYCQQANRFPLTFGGGTKLEIKR | 0.168 nM | – | – | NKT IFN-γ EC50 (THP-1) (Human CD1d on cells [2]): 6.15 ng/mL; NKT IL-4 EC50 (THP-1) (Human CD1d on cells [2]): 1.11 ng/mL; NKT IL-5 EC50 (THP-1) (Human CD1d on cells [2]): 3.73 ng/mL; NKT IL-13 EC50 (THP-1) (Human CD1d on cells [2]): 5.76 ng/mL; NKT TNF EC50 (THP-1) (Human CD1d on cells [2]): 3.04 ng/mL |
| 401.11.179 (antibody, IgG4, V domains shown, IgG4 (S228P)) VH: QVQLVGSGGGLVKPGRSLRLSCAASGFTFDDYAMHWVRQAPGKGLEWVATIIWNSAIIGYADSVKGRFIVSRDNAKNSLYLQMNSLRAEDTALYYCAKDMCSSGGCPEGYFDSWGQGTLVTVSS VL: DIQMTQSPSSVSASVGDRVTITCRASQHISSWLAWYQQKPGKAPKLLIYAASSLQSGVPSRFSGSGSGTDFTLTISSLQPEDFATYYCQQANRFPLTFGGGTKLEIKR | 0.274 nM | – | – | NKT IFN-γ EC50 (moDC) (Human CD1d on cells [3]): 30.2 ng/mL; NKT IL-4 EC50 (moDC) (Human CD1d on cells [3]): 0.73 ng/mL; NKT IL-5 EC50 (moDC) (Human CD1d on cells [3]): 2.1 ng/mL; NKT IL-13 EC50 (moDC) (Human CD1d on cells [3]): 2.43 ng/mL |
| 401.11.167 (antibody, IgG4, V domains shown, IgG4 (S228P)) VH: EVQLVESGGGLVQPGRSLRLSCAASGFTFDDYAMHWVRQAPGKGLEWVATIIWNSAIIGYADSVKGRFIVSRDNAKNSLYLQMNSLRAEDTALYYCAKDMCSSGGCPDGYFDSWGQGTLVTVSS VL: DIQMTQSPSSVSASVGDRVTITCRASQHISSWLAWYQQKPGKAPNLLIYAASSLQSGVPSRFSGSGSGTDFTLTISSLQPEDFATYYCQQANRFPLTFGGGTKLEIKR | 0.17 nM | – | – | NKT IFN-γ EC50 (THP-1) (Human CD1d on cells [2]): 6.51 ng/mL; NKT IL-4 EC50 (THP-1) (Human CD1d on cells [2]): 2.89 ng/mL; NKT IL-5 EC50 (THP-1) (Human CD1d on cells [2]): 4.98 ng/mL; NKT IL-13 EC50 (THP-1) (Human CD1d on cells [2]): 7.46 ng/mL; NKT TNF EC50 (THP-1) (Human CD1d on cells [2]): 4 ng/mL |
| 401.11.154 (antibody, IgG4, V domains shown, IgG4 (S228P)) VH: QVQLVGSGGGLVKPGRSLRLSCAASGFTFDDYAMHWVRQAPGKGLEWVATIIWNSAIIGYADSVKGRFIVSRDNAKNSLYLQMNSLRAEDTALYYCAKDMCSSSGCPDGYFDSWGQGTLVTVSS VL: DIQMTQSPSSVSASVGDRVTITCRASQHISSWLAWYQQKPGKAPKLLIYAASSLQSGVPSRFSGSGSGTDFTLTISSLQPEDFATYYCQQANRFPLTFGGGTKLEIKR | 1.77 nM | 4.16 ng/mL | 17.7 ng/mL | – |

From US20140286957A1 (Teva, published 2014)
